Experiment [1] has as its target T1, Human IL-23 (human, UniProt Q9NPF7 20-189; P29460 23-328).
T1 sequence (looked up) 1: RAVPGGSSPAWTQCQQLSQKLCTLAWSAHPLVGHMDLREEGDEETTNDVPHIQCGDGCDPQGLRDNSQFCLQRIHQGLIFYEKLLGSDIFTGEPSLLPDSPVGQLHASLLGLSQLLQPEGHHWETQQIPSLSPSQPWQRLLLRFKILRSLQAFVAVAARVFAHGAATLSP
T1 sequence (looked up) 2: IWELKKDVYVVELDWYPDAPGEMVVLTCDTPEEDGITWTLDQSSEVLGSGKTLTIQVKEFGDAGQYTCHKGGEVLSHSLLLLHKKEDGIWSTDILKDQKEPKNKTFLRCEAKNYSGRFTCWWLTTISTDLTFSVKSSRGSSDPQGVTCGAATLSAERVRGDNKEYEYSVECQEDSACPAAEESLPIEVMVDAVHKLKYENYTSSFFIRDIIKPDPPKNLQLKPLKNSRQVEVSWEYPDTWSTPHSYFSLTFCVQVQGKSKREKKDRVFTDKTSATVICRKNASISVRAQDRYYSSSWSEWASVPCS
The experiment can be described thus: cell-based or functional assay.

In experiment [2] the target is T1, Human IL-23. In words: SPR (Biacore T100), Adnectin captured by anti-His mAb, IL-23 injected, 25 C. The method, then:
The anti-His antibody, mAb050 (RnD Systems, MN) was diluted to 20 μg/mL in acetate, pH 5.0 and immobilized to ˜9000 RU on flow cells 1 and 2 of a CM5 chip surface (GE Healthcare, Piscataway, N.J.) according to the manufacturer's instructions. All surface plasmon experiments were conducted in HBS-EP (10 mM Hepes 150 mM NaCl 3 mM EDTA 0.05% Surfactant P20) at 25° C. IL-23 was injected over anti-His mAb captured Adnectins for 2 minutes followed by a 10 minute dissociation phase. Kinetic parameters were calculated using the T100. Biaevaluation.
Background: SPR reads the build-up and loss of mass on a sensor chip optically.

Experiment [3] addresses T1, Human IL-23. In words: competitive ELISA, ratio of IC50 against parent 1454B08. The method, then: (§1) Adnectin variants were tested by ELISA for their ability to bind IL-23 in a manner that was competitive with the binding site of the native IL-23 receptor (IL-23R). Recombinant human IL-23R-Fc (R&D Systems, Minneapolis, Minn.) was coated overnight at 4° C. on a NUNC® Maxisorp plate (Thermo Fisher Scientific, Denmark) with 50 μL at 4 μg/mL in PBS. All washing was performed with PBST (PBS with 0.05% (w/v) Tween) using an automated plate washer (Biotek, Vt.). OptEIA buffer (BD Bioscience, CA) was used as block and assay diluent. Adnectin dilutions ranging from 200 nM to 28 pM were pre-incubated with 1 nM IL-23 for an hour before transferring to blocked IL-23R-Fc coated plates for 30 minutes. Bound IL-23 was detected via anti-IL-23 (GeneTex, CA) and anti-mouse-HRP (R&D Systems, MN) followed by TMB (3,3′,5,5′-tetramethylbenzidine) (BD Bioscience, CA) addition. Typical development time was 10 minutes. […] IC50s were generated from the average of four runs with an in-house curve fitting application.
For orientation: In an ELISA, binding on a coated surface is turned into a signal by an enzyme label.

Experiment [4] addresses T1, Human IL-23. In words: competitive ELISA: Adnectin pre-incubated with 1 nM IL-23, binding to coated IL-23R-Fc. The method, then: as §1

anti-p19 polyclonal antibody (AF1716) had a pSTAT3 IC50 (nM) with Human IL-23 [1] of 36.5 nM.

B1: Anti-IL-23 Adnectin 1866F10 (designed binder)
chain: MGVSDVPRDLEVVAATPTSLLISWDHDYPYRRYYRITYGETGGNSPVQEFTVPRNINTATISGLKPGVDYTITVYAVTSTLKYDIQYSPISINYRTEIDKPSQHHHHHH
With B1, in the experiment with Human IL-23 [1], the “pSTAT3 IC50 (nM)” value was found to be 0.06 nM.

B2: Anti-IL-23 Adnectin 1866C02 (designed binder)
chain: MGVSDVPRDLEVVAATPTSLLISWDHNYTWYRYYRITYGETGGNSPVQEFTVPRGVDTATISGLKPGVDYTITVYAVTSSYKYDIQYPPISINYRTEIDKPSQHHHHHH
For B2, the “pSTAT3 IC50 (nM)” value with Human IL-23 [1] was found to be 0.03 nM.

B3: Anti-IL-23 Adnectin 1866D11 (designed binder)
chain: MGVSDVPRDLEVVAATPTSLLISWDHDYPYRRYYRITYGETGGNSPVQEFTVPKDVDTATISGLKPGVDYTITVYAVTSSYKYDIQYPPISINYRTEIDKPSQHHHHHH
For B3, in the experiment with Human IL-23 [1], the “pSTAT3 IC50 (nM)” value came to 0.03 nM.

B4: Anti-IL-23 Adnectin 1454B08 (designed binder)
chain: MGVSDVPRDLEVVAATPTSLLISWEHDYPYRRYYRITYGETGGNSPVQEFTVPKDVDTATISGLKPGVDYTITVYAVTSSYKYDMQYSPISINYRTEIDKPSQHHHHHH
notes: 10Fn3-based Adnectin expressed in E. coli followed by a HIS6 tag; Fn3 domain is positions 3-96 of the entry; also called Parent
What is called Kd is the constant that tells how readily two partners part at equilibrium. The koff is the first-order rate constant of dissociation. High values mean fast dissociation, low ones slow dissociation. The kon is a measure of how fast the partners come together. High values mean faster complex formation, low ones slower complex formation. The IC50 is the concentration needed to halve the response being measured. A higher IC50 goes with a need for much substance. In the experiment with Human IL-23 [2], B4 came in with a Kd of 3.72 nM, a koff of 0.000409 s⁻¹ and a kon of 110000 M⁻¹ s⁻¹. Besides, the “pSTAT3 IC50 (nM)” value with Human IL-23 [1] was 0.3 nM. Moreover, the “Activity (parent/mutant)” value with Human IL-23 [3] worked out at 1. The IC50 with Human IL-23 [4] amounted to 1 nM.

B5: Anti-IL-23 Adnectin 1454H11 (designed binder)
chain: MGVSDVPRDLEVVAATPTSLLISWEHDYPYRRYYRITYGETGGNSPVQEFTVPREDSTATISGLKPGVDYTITVYAVTSSYKYDMQYSPISINYRTEIDKPSQHHHHHH
notes: 10Fn3-based Adnectin expressed in E. coli followed by a HIS6 tag; Fn3 domain is positions 3-96 of the entry
As for B5, in the experiment with Human IL-23 [2], the Kd was 2.8 nM, the koff is 0.000227 s⁻¹ and the kon turned out to be 81000 M⁻¹ s⁻¹. Besides, in the experiment with Human IL-23 [1], the “pSTAT3 IC50 (nM)” value was determined as 0.45 nM.

B6: Anti-IL-23 Adnectin 1454D02 (designed binder)
chain: MGVSDVPRDLEVVAATPTSLLISWDHDYPYRRYYRITYGETGGNSPVQEFTVPRNINTATISGLKPGVDYTITVYAVTSSYKYDMQYSPISINYRTEIDKPSQHHHHHH
notes: 10Fn3-based Adnectin expressed in E. coli followed by a HIS6 tag (captured by anti-His mAb in SPR)
In the experiment with Human IL-23 [2], B6 returned a dissociation constant Kd of 9.57 nM, a koff of 0.000438 s⁻¹ and a kon of 45700 M⁻¹ s⁻¹. Besides, the “pSTAT3 IC50 (nM)” value with Human IL-23 [1] was 0.48 nM.

B7: Anti-IL-23 Adnectin 1454C03 (designed binder)
chain: MGVSDVPRDLEVVAATPTSLLISWDMYYPYSRYYRITYGETGGNSPVQEFTVPKEYDTATISGLKPGVDYTITVYAVTSSYKYDMQYSPISINYRTEIDKPSQHHHHHH
notes: as for B5
In the case of B7, in the experiment with Human IL-23 [2], the affinity, expressed as Kd, was 3.91 nM; the koff was 0.000468 s⁻¹; the on-rate (kon) stood at 120000 M⁻¹ s⁻¹. Besides, the “pSTAT3 IC50 (nM)” value with Human IL-23 [1] was 0.44 nM.

B8: Anti-IL-23 Adnectin 1241A05 (designed binder)
chain: MGVSDVPRDLEVVAATPTSLLISWNHNYSYYRYYRITYGETGGNSPVQEFTVPRGVATATISGLKPGVDYTITVYAVTSSYKYDMQYSPISINYRTEIDKPSQHHHHHH
notes: 10Fn3-based Adnectin expressed in E. coli followed by a HIS6 tag; Fn3 domain is positions 3-96 of the entry; also called Clone 1241A05
As for B8, in the experiment with Human IL-23 [2], the Kd came out at 32.6 nM, the off-rate (koff) was determined as 0.000236 s⁻¹ and the association rate constant (kon) came out at 7280 M⁻¹ s⁻¹. In addition, the “pSTAT3 IC50 (nM)” value with Human IL-23 [1] was determined as 30.7 nM.
